Holding throughout (details): tags: pSG5-hRev-erbα, TnT T7 rabbit reticulocyte lysate; label: 32P
Series [1] has as its target T1, Rev-erb alpha (NR1D1) (Homo sapiens, UniProt P20393 P20393:1-614).
T1 sequence: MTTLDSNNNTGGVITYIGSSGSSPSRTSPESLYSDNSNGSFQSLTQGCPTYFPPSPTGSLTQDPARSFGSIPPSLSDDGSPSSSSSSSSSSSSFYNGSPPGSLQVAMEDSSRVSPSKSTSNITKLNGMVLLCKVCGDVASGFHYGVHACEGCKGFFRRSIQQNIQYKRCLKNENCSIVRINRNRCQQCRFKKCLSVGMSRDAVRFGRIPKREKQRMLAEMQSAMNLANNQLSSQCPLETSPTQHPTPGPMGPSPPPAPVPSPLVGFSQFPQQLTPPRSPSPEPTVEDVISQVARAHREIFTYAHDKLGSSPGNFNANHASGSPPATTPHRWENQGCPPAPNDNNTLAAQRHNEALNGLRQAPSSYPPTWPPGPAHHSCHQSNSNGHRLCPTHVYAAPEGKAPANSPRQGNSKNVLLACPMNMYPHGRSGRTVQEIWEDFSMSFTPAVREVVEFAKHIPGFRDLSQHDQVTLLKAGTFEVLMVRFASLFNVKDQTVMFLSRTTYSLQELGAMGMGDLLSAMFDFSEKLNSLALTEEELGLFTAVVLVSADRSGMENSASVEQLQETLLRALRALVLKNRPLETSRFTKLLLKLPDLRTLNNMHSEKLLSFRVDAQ
The series can be described thus: EMSA; two complexes, monomer and dimer; 10 mM Hepes, 80 mM KCl, polydIdC. For orientation: Mobility shift assays separate free from complexed probe on a gel.

Series [2] concerns the target T1, Rev-erb alpha (NR1D1). The series can be described thus: EMSA; no significant retardation.
The target in series [3] is T1, Rev-erb alpha (NR1D1). The series can be described thus: EMSA; data not illustrated.

Consider three molecules from patent US7691628, “Use of Rev-erb family of receptors in screening” (Merck Patent GmbH).

B1: Rev-DR2 (dsDNA)
DNA 1: GATCCGGAAAAGTGTGTCACTGGGGCACGA
DNA 2: GATCTCGTGCCCCAGTGACACACTTTTCCG
For the molecule B1, the binding result with Rev-erb alpha (NR1D1) [1] is on record as “binds”.

B2: C3P-DR2 (-104/-72) (dsDNA)
DNA 1: GATCCTCATCTCCACTGGTCAGCAGGTGACCTTTGC
DNA 2: GATCGGCAAAGGTCACCTGCTGACCAGTGGAGATGAG
Consider B2, for which the binding result with Rev-erb alpha (NR1D1) [2] is “no binding”.

B3: HCIII-TaTaKO (dsDNA)
DNA 1: GATCGATATAAAACAGGCAGGAACCCTC
DNA 2: GATCGAGGGTTCCTGCCTGTTTTATATC
Regarding B3, the binding result in the series with Rev-erb alpha (NR1D1) [3] is “no binding”.
